Test system: T1, PsdR-His (Pseudomonas aeruginosa PAO1?), ORF:604e189e
T1 sequence: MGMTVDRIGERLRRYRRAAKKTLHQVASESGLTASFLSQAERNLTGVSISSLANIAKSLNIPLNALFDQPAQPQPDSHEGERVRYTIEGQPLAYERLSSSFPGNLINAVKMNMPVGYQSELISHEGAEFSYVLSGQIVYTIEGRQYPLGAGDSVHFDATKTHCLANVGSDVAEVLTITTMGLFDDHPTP
Experiment: EMSA
Conditions: 10 mM Tris-HCl pH 7.5, 50 mM KCl, 1 mM DTT, 1% glycerin, 10 mM MgCl2, 1 ug/ul poly(dI-dC), 25 C, 30 min; 6.5% polyacrylamide gel

In the case of “CGGGTATCGTACTAGGTGCATCAAACGCTGCGGTCTATTGTTAAGTGGGACTGAAATGTGCCTTTCCGGCACAACGCCAACTCTATAGA (double strand) [PlasR-WT]”, the binding is reported as “binds”.

— article PMC10965056
